Source: patent US20240117018A1

Experiments:
Experiment in all cases: cell-based or functional assay
[1] = molecular target: HIV-1 Env pseudovirus 1394C9G1(Rev-) (HIV-1)
[2] = molecular target: HIV-1 Env pseudovirus 231965.c01 (HIV-1)
[3] = molecular target: HIV-1 Env pseudovirus 3103.v3.c10 (HIV-1)
[4] = molecular target: HIV-1 Env pseudovirus 3301.v1.c24 (HIV-1)
[5] = molecular target: HIV-1 Env pseudovirus 6480.v4.c25 (HIV-1)
[6] = molecular target: HIV-1 Env pseudovirus 6811.v7.c18 (HIV-1)
[7] = molecular target: HIV-1 Env pseudovirus Ce1176_A3 (HIV-1)
[8] = molecular target: HIV-1 Env pseudovirus HIV-16055-2.3 (HIV-1)
[9] = molecular target: HIV-1 Env pseudovirus HIV-16845-2.22 (HIV-1)
[10] = molecular target: HIV-1 Env pseudovirus Q259.d2.17 (HIV-1)
[11] = molecular target: HIV-1 Env pseudovirus R2184.c04 (HIV-1)
[12] = molecular target: HIV-1 Env pseudovirus R3265.c06 (HIV-1)
[13] = molecular target: HIV-1 Env pseudovirus TRJO4551.58 (HIV-1)
[14] = molecular target: HIV-1 Env pseudovirus TRO.11 (HIV-1)
[15] = molecular target: HIV-1 Env pseudovirus X1193_c1 (HIV-1)
[16] = molecular target: HIV-1 Env pseudovirus ZM135M.PL10a (HIV-1)
[17] = molecular target: HIV-1 Env pseudovirus ZM197M.PB7 (HIV-1)
[18] = molecular target: HIV-1 Env pseudovirus ZM249M.PL1 (HIV-1)
[19] = molecular target: HIV-1 Env pseudovirus ZM53M.PB12 (HIV-1)
[20] = molecular target: Env of HIV-1 pseudovirus 0260.v5.c36 (HIV-1)
[21] = molecular target: Env of HIV-1 pseudovirus 1012_11_TC21_3257 (HIV-1)
[22] = molecular target: Env of HIV-1 pseudovirus 62357_14_D3_4589 (HIV-1)
[23] = molecular target: Env of HIV-1 pseudovirus 6240_08_TA5_4622 (HIV-1)
[24] = molecular target: Env of HIV-1 pseudovirus BF1266.431a (HIV-1)
[25] = molecular target: Env of HIV-1 pseudovirus CAP210.2.00.E8 (HIV-1)
[26] = molecular target: Env of HIV-1 pseudovirus CNE21 (HIV-1)
[27] = molecular target: Env of HIV-1 pseudovirus CNE58 (HIV-1)
[28] = molecular target: Env of HIV-1 pseudovirus Ce2060_G9 (HIV-1)
[29] = molecular target: Env of HIV-1 pseudovirus Du156.12 (HIV-1)
[30] = molecular target: Env of HIV-1 pseudovirus Du172.17 (HIV-1)
[31] = molecular target: Env of HIV-1 pseudovirus SC422661.8 (HIV-1)
[32] = molecular target: Env of HIV-1 pseudovirus TRO.11 (HIV-1)
[33] = molecular target: Env of HIV-1 pseudovirus WITO4160.33 (HIV-1)
[34] = molecular target: Env of HIV-1 pseudovirus ZM197M.PB7 (HIV-1)
[35] = molecular target: Env of HIV-1 pseudovirus ZM233M.PB6 (HIV-1)
[36] = molecular target: Env of HIV-1 pseudovirus ZM247v1(Rev-) (HIV-1)
[37] = molecular target: Env of HIV-1 pseudovirus ZM53M.PB12 (HIV-1)

Question: VRC01 (antibody) was tested. Which IC50 (Titer in TZM.bl cells) [1] did it give?
Answer: 0.36 µg/mL

Question: And the IC80 (Titer in TZM.bl cells) [1]?
Answer: 1.28 µg/mL

Question: What about the IC50 (Titer in TZM.bl cells) [2] of the same substance?
Answer: 0.34 µg/mL

Question: And the IC80 (Titer in TZM.bl cells) [2]?
Answer: 1.2 µg/mL

Question: What about the IC50 (Titer in TZM.bl cells) [3] of the same substance?
Answer: 0.93 µg/mL

Question: And the IC80 (Titer in TZM.bl cells) [3]?
Answer: 2.49 µg/mL

Question: And the IC50 (Titer in TZM.bl cells) [4]?
Answer: 0.14 µg/mL

Question: What about the IC80 (Titer in TZM.bl cells) [4] of the same substance?
Answer: 0.32 µg/mL

Question: And the IC50 (Titer in TZM.bl cells) [5]?
Answer: 0.04 µg/mL

Question: And the IC80 (Titer in TZM.bl cells) [5]?
Answer: 0.09 µg/mL

Question: What about the IC50 (Titer in TZM.bl cells) [6] of the same substance?
Answer: 0.09 µg/mL

Question: And the IC80 (Titer in TZM.bl cells) [6]?
Answer: 0.26 µg/mL

Question: And the IC50 (Titer in TZM.bl cells) [7]?
Answer: 2.25 µg/mL

Question: And the IC80 (Titer in TZM.bl cells) [7]?
Answer: 8.1 µg/mL

Question: And the IC50 (Titer in TZM.bl cells) [8]?
Answer: 0.08 µg/mL

Question: And the IC80 (Titer in TZM.bl cells) [8]?
Answer: 0.26 µg/mL

Question: What about the IC50 (Titer in TZM.bl cells) [9] of the same substance?
Answer: 2.8 µg/mL

Question: And the IC80 (Titer in TZM.bl cells) [9]?
Answer: 12.7 µg/mL

Question: And the IC50 (Titer in TZM.bl cells) [10]?
Answer: 0.17 µg/mL

Question: What about the IC80 (Titer in TZM.bl cells) [10] of the same substance?
Answer: 0.54 µg/mL

Question: What about the IC50 (Titer in TZM.bl cells) [11] of the same substance?
Answer: 0.08 µg/mL

Question: What about the IC80 (Titer in TZM.bl cells) [11] of the same substance?
Answer: 0.32 µg/mL

Question: What about the IC50 (Titer in TZM.bl cells) [12] of the same substance?
Answer: 0.45 µg/mL

Question: And the IC80 (Titer in TZM.bl cells) [12]?
Answer: 1.88 µg/mL

Question: And the IC50 (Titer in TZM.bl cells) [13]?
Answer: 0.08 µg/mL

Question: What about the IC80 (Titer in TZM.bl cells) [13] of the same substance?
Answer: 0.21 µg/mL

Question: And the IC50 (Titer in TZM.bl cells) [14]?
Answer: 0.21 µg/mL

Question: And the IC80 (Titer in TZM.bl cells) [14]?
Answer: 0.83 µg/mL

Question: And the IC50 (Titer in TZM.bl cells) [15]?
Answer: 0.11 µg/mL

Question: And the IC80 (Titer in TZM.bl cells) [15]?
Answer: 0.32 µg/mL

Question: And the IC50 (Titer in TZM.bl cells) [16]?
Answer: 0.35 µg/mL

Question: What about the IC80 (Titer in TZM.bl cells) [16] of the same substance?
Answer: 2.7 µg/mL

Question: And the IC50 (Titer in TZM.bl cells) [17]?
Answer: 0.36 µg/mL

Question: And the IC80 (Titer in TZM.bl cells) [17]?
Answer: 1.6 µg/mL

Question: What about the IC50 (Titer in TZM.bl cells) [18] of the same substance?
Answer: 0.05 µg/mL

Question: What about the IC80 (Titer in TZM.bl cells) [18] of the same substance?
Answer: 0.23 µg/mL

Question: What about the IC50 (Titer in TZM.bl cells) [19] of the same substance?
Answer: 1.3 µg/mL

Question: And the IC80 (Titer in TZM.bl cells) [19]?
Answer: 4 µg/mL

Question: For 10-1074 (antibody), which IC50 [20] is on record?
Answer: 0.099 µg/mL

Question: What about the IC80 [20] of the same substance?
Answer: 0.16 µg/mL

Question: And the IC50 [21]?
Answer: 0.008 µg/mL

Question: What about the IC80 [21] of the same substance?
Answer: 0.059 µg/mL

Question: What about the IC50 [22] of the same substance?
Answer: > 50 µg/mL

Question: And the IC80 [22]?
Answer: > 50 µg/mL

Question: And the IC50 [23]?
Answer: 0.068 µg/mL

Question: What about the IC80 [23] of the same substance?
Answer: 0.306 µg/mL

Question: And the IC50 [24]?
Answer: > 50 µg/mL

Question: And the IC80 [24]?
Answer: > 50 µg/mL

Question: What about the IC50 [25] of the same substance?
Answer: > 50 µg/mL

Question: What about the IC80 [25] of the same substance?
Answer: > 50 µg/mL

Question: What about the IC50 [26] of the same substance?
Answer: 0.067 µg/mL

Question: What about the IC80 [26] of the same substance?
Answer: 0.181 µg/mL

Question: What about the IC50 [27] of the same substance?
Answer: 0.267 µg/mL

Question: What about the IC80 [27] of the same substance?
Answer: 0.968 µg/mL

Question: And the IC50 [28]?
Answer: > 50 µg/mL

Question: And the IC80 [28]?
Answer: > 50 µg/mL

Question: What about the IC50 [29] of the same substance?
Answer: 0.015 µg/mL

Question: What about the IC80 [29] of the same substance?
Answer: 0.076 µg/mL

Question: And the IC50 [30]?
Answer: 0.121 µg/mL

Question: And the IC80 [30]?
Answer: 0.43 µg/mL

Question: What about the IC50 [31] of the same substance?
Answer: 0.091 µg/mL

Question: What about the IC80 [31] of the same substance?
Answer: 0.418 µg/mL

Question: What about the IC50 [32] of the same substance?
Answer: 0.008 µg/mL

Question: And the IC80 [32]?
Answer: 0.057 µg/mL

Question: And the IC50 [33]?
Answer: 0.185 µg/mL

Question: What about the IC80 [33] of the same substance?
Answer: 2.11 µg/mL

Question: What about the IC50 [34] of the same substance?
Answer: > 50 µg/mL

Question: And the IC80 [34]?
Answer: > 50 µg/mL

Question: And the IC50 [35]?
Answer: 0.06 µg/mL

Question: What about the IC80 [35] of the same substance?
Answer: 0.349 µg/mL

Question: What about the IC50 [36] of the same substance?
Answer: 0.042 µg/mL

Question: And the IC80 [36]?
Answer: 0.186 µg/mL

Question: What about the IC50 [37] of the same substance?
Answer: > 50 µg/mL

Question: What about the IC80 [37] of the same substance?
Answer: > 50 µg/mL

Question: What does the source list for N49P7.2 (antibody)?
Answer: IC50 [1]: > 50 µg/mL; IC80 [1]: > 50 µg/mL; MPI [1]: 20; IC50 [7]: 0.332 µg/mL; IC80 [7]: 1.08 µg/mL; MPI [7]: 100; IC50 [8]: 0.204 µg/mL; IC80 [8]: 0.721 µg/mL; MPI [8]: 100; IC50 [9]: 3.91 µg/mL; IC80 [9]: 18.2 µg/mL; MPI [9]: 98; IC50 [10]: 38.5 µg/mL; IC80 [10]: > 50 µg/mL; MPI [10]: 54; IC50 [13]: 0.21 µg/mL; IC80 [13]: 0.673 µg/mL; MPI [13]: 100; IC50 [14]: 0.113 µg/mL; IC80 [14]: 0.306 µg/mL; MPI [14]: 100; IC50 [16]: 0.596 µg/mL; IC80 [16]: 2.8 µg/mL; MPI [16]: 99; IC50 [17]: 0.223 µg/mL; IC80 [17]: 1.37 µg/mL; MPI [17]: 100; IC50 [18]: 0.073 µg/mL; IC80 [18]: 0.256 µg/mL; MPI [18]: 100; IC50 [19]: 0.477 µg/mL; IC80 [19]: 1.73 µg/mL; MPI [19]: 100

Question: Which results are given for PG9 (antibody)?
Answer: IC50 [20]: 1.69 µg/mL; IC80 [20]: 9 µg/mL; IC50 [21]: 0.172 µg/mL; IC80 [21]: 0.605 µg/mL; IC50 [22]: > 50 µg/mL; IC80 [22]: > 50 µg/mL; IC50 [23]: 1.75 µg/mL; IC80 [23]: 6.33 µg/mL; IC50 [24]: 0.026 µg/mL; IC80 [24]: 0.088 µg/mL; IC50 [25]: 0.04 µg/mL; IC80 [25]: 0.173 µg/mL; IC50 [26]: 0.038 µg/mL; IC80 [26]: 0.094 µg/mL; IC50 [27]: 0.038 µg/mL; IC80 [27]: 0.122 µg/mL; IC50 [28]: 0.045 µg/mL; IC80 [28]: 0.172 µg/mL; IC50 [29]: 0.026 µg/mL; IC80 [29]: 0.19 µg/mL; IC50 [30]: 0.606 µg/mL; IC80 [30]: 1.6 µg/mL; IC50 [31]: 0.553 µg/mL; IC80 [31]: 7.05 µg/mL; IC50 [32]: 43.2 µg/mL; IC80 [32]: > 50 µg/mL; IC50 [33]: 0.01 µg/mL; IC80 [33]: 0.037 µg/mL; IC50 [34]: 0.899 µg/mL; IC80 [34]: 4.52 µg/mL; IC50 [35]: 0.01 µg/mL; IC80 [35]: 0.026 µg/mL; IC50 [36]: 0.112 µg/mL; IC80 [36]: 0.323 µg/mL; IC50 [37]: 0.069 µg/mL; IC80 [37]: 0.221 µg/mL
